Source: patent US20260209316A1 (US Dept. of Health and Human Services, published 2026)
Substitutions are numbered along the chain they refer to.

T1: full-length Sudan GP (GPFL) (Sudan virus (SUDV), UniProt Q7T9D9 33-650)
T1 construct: also called Sudan GPFL; GP(S)FL
T1 sequence: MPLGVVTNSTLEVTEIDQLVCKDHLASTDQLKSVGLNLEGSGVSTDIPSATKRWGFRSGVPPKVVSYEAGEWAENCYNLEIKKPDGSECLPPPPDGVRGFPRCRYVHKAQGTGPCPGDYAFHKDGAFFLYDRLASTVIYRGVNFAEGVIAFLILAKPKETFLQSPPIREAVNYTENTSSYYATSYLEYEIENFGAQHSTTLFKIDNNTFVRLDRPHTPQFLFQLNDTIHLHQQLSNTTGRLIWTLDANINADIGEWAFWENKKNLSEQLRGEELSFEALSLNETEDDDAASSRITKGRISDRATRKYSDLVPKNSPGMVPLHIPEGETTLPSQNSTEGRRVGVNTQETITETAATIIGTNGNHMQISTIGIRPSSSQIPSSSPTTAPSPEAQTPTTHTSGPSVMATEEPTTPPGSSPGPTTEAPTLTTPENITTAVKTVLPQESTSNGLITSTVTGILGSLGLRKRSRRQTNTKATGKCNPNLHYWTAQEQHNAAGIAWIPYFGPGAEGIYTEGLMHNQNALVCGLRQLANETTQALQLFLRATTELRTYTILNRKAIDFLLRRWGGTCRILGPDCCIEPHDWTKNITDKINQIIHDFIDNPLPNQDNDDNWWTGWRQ

B1: Fab generated from 523S (Fab, V domains shown)
VH: QVQLVQSGAELKKPGASVKVSCKASGYTFSDHYVHWVRQAPGQGLEWMGRINPNSGGTNYAQRFLGRVTMTRDASISTAYLDLSSLRSDDTAVYYCARSSSSWSGHYYYYMDVWGKGTTVTVSS
VL: QSVLTQPPSVSAAPGQRVTISCSGSTSNIASNFVSWYQQLPGTAPKLLIYDNHKRPSGIPDRFSGSKSGTSATLGITGLQTGDEADYYCGTWDSSLSAGVFGGGTKVTVL
notes: also called 523S Fab
B2: Fab generated from 315S (Fab, V domains shown)
VH: EVQLVESGGGVVQPGRSLRLSCAASGFTFKTYTMHWVRQAPGKGLEWVAVITDDGVNKKYADSVKGRFTISRDNSKNTLYLQMNSLRLEDTAVYYCARSVVVLAAYPLDYWGQGTMVTVSS
VL: DIQMTQSPSSLSASVGDRVTITCRASQTISTYLHWYQQRPGKAPKLLIYAASSLQSGVPSRVSGSGSGTDFTLTITSLQPEDFATYYCLQTYSLPLTFGGGTNVEIK
notes: also called 315S Fab
B3: Fab generated from 365S (Fab, V domains shown)
VH: EVQLVESGGGLVQPGGSLRLSCAASGLTFSAYEMNWVRQAPGKGLEWVSHITTSGSAIYYADSVKGRFTISRDNAKNSLHLQMNRLRADDTAVYFCARDSTIVQCSGTSCHVSTYSYMDVWGKGTTVTVSS
VL: EIVLTQSPATLSLSPGERATLSCRASQSVTTYLAWYQHKPGQAPRLLIYDASKRATGIPARFSGSGSGTDFTLTISSLEPEDFAVYHCQQRSSWPPITFGQGTRLEIK
notes: also called 365S Fab
B4: Fab generated from 541S (Fab, V domains shown)
VH: QVQLVQSGAEVKKPGASVKVSCKASGYTFTNYAITWVRQAPGQGLEWMGWISAFNGQINYAQKFQGRVAMTTDTSTSTAYMELRSLRSDDTAVYYCARAPPMWFSGAKFDYWGQGTLVTVSS
VL: QSVLTQPPSVSGTPGQRVTISCSGSSSNIGSNTVNWYQQLPGTAPKLLIYSNDQRPSGVPDRFSGSKSGTSASLAISGLRSEDEADYYCAAWDETLRRVFGGGTRLTVL
notes: also called 541S Fab
B5: Fab generated from 335S (Fab, V domains shown)
VH: EVQLVESGGGVVQPGRSLRLSCAASGFSFSNYAMHWVRQAPGKGLEWVAVTWYDGSSKYHADSVKGRFTISRDNSKNTLYLQMNSLRAEDTAVYYCARWGMGIVASPGNVLNYYYFMDVWGQGTTVIVSS
VL: SYELTQPPSVSVSPGQTARITCSGNPLPKKHTYWYQQKPGQAPVLMIYKDSERPSRIPERFSGSSSGTTVTLTISGVQAEDEADYYCQSADSTGIVVFGGGTKLTVL
notes: also called 335S Fab
B6: Fab generated from 285S (Fab, V domains shown)
VH: QVQLVQSGAEVKKPGSSVKVSCKASGGTFSTYAITWVRQAPGQGLEWMGRIIPILRVANYAQKFQGRVTITADSSTSTAYMELSSLRSEDTAVYYCANLLAYCGGDCRSDYWGQGTLVTVSS
VL: EIVLTQSPGTLSLSPGERATLSCRASQSVKNSYLAWYHQKPGQAPRLLIYGASSRATGIPDRFSGSGSGTDFTLTISRLEPEDFAVYYCQQYGSSLWTFGQGTKVDVK
B7: Fab generated from 528S (Fab, V domains shown)
VH: EVQLAESGGGVVQPGRSLRLSCAASGFTFNSYGMHWVRQAPGKGLEWVAVIWDDGSKKYYADSVKGRFTISRDNSKNTLFLQMNSLRAEDTAVYYCARETIMFTFGEVIVSSRDNYYMDVWGKGTTVTVSS
VL: EIVLTQSPATLSLSPGERATLSCRASQSVSNYLAWYQQKPGQAPRLLIYDASTRAIGIPARFSGVGSGTDFTLTISSLEPEDFAVYYCQQRSNWPPLTFGGGTKVEIK
notes: also called 528S Fab
B8: Fab generated from 102S (Fab, V domains shown)
VH: EVQLVESGGGLVQPGGSLRLSCSASGFTFHSYDMNWARQAPGKGLEWVSEISSSGQSKNYADSVRGRFTISRDNAKNSLYLQINSLRSEDTAVYYCARVGFVAKFGSDFSITHGTYYLDYWGQGTLVTVSS
VL: B7 VL with E1Q, I2L, T53N, I56P, I58V, V65S, T72S, Q89L, L97W, G101Q
B9: Fab generated from 338S (Fab, V domains shown)
VH: EVQLVESGGGVVQPGRSLRLSCAASGFTFSQYGMHWVRQAPGKGLECVAVIWFDGSKKYYGDSVKGRFTISRDNSKNTLYLQMNSLRAEDTAVYFCARESLYYYDSGGHYYERGRIDYWGQGTLVTVSS
VL: DIQMTQSPSSLSASVGDRVTITCRASQDISNFLAWFQQKPGKAPKSLIYAASSLLSGVPSKFSGSGSGTDFTLTISSLQPEDFATYYCQQYNSYPPTFGQGTKLEIK
B10: Fab generated from 203S (Fab, V domains shown)
VH: QVQLVQSGAEVKKPGSSVKVSCKASGGTFSSYAISWVRQAPGQGLEWLGRILPALGLANYAQKYQDRVKITADKSTSTAYMELSRLGSEDTAVYYCARDRWVGAARRGQYFDYWGQGTQVTVSS
VL: DIQMTQSPATLSASVGDRVTITCRASQSIGTWLAWYQQKPGKAPKLLIYDASSLESGVPPRFSGSGSETEFTLTISSLQPDDFATYYCHQYKSYSYTFGQGTKLEIK
notes: also called 203S Fab
B11: Fab generated from 382S (Fab, V domains shown)
VH: QVQLVQSGAEVKKPGSSVKVSCKASGGTFSNYGISWVRQAPGQGLEWMGRNIPIIGIANYAQKFQDRVTITADKSTSTVFMELRSLRYEDTAVYYCARDPLAARRGNWFDPWGQGTLVTVSS
VL: B10 VL with A9S, I29V, G30S, T31S, S53T, E55Q, P60S, E68G, H89Q, K92N
notes: also called 382S Fab
B12: Fab generated from 377S (Fab, V domains shown)
VH: QVQLVQSGAEVKKPGSSVKVSCKASGGTFSNYAINWVRQAPGQGLEWMGRTIPFLGLTNYAENFQARVTITADKSTGTSYMQLSSLRSEDTAVYFCAKAATSGWSPFDNWGQGTLVTVSS
VL: EIVLTQSPGTLSLSPGERATLSCRASQSISSSYFGWYQQKPGQAPRLLIYGASRRAAGIPDRFSCSGSGTDFTLTISRLEPEDFGVYYCQQYGSSPTFGQGTKVEIK
B13: Fab generated from 573S (Fab, V domains shown)
VH: EVQLVESGGGLVKPGGSLRLSCAASGFTFSSYTMNWVRQAPGKGLEWVSCIRSSSSDKYYADSVKGRFTISRDNTKNSLYLQMNSLRADDTAVYYCARDLGGANNRYYFDYGMDVWGQGTTVTVSS
VL: EIVMTQSPATLSVSPGGRATLSCRASQSVYTNLAWYQQKPGQAPRLLIYDASTRATGIPARFSGSGSGTEFTLTISSLQCEDFAVYYCQHYNNWPLYTFGQGTKLEIK
notes: also called 573S Fab
B14: Fab generated from 578S (Fab, V domains shown)
VH: EVQLVESGGGVVQPGRSLRLSCAASGFTFSSYELHWVRQAPGKGLEWVAVISYDGSSKYYADSLKGRFTISRDNSKNTLSLQMNSLRAEDTAMYYCVRQSEAYCSDGRCDWRRALDIWGQGTMVTVSP
VL: DIQMTQSPSSLSASVGDRVTITCQASQDIKNYLNWYQQKPGKAPKLLIYDVSKLETGVPSRFSGSGSGTDFSFTISSLQPEDIATYYCQQYDNLPSYTFGQGTKLEIK
notes: also called 578S Fab
B15: Fab generated from 294S (Fab, V domains shown)
VH: QVQLQESGPGLVKPSQTLSLTCTVSGGSISSGGYHWSWIRQHPGKGLEWIGNIYYNGRTYYNPSLKSRVTISVDTSENEFSLKLSSVTAADTAVYYCARDRRRPRIGHDYGMDVWGQGTKVIVSS
VL: DIQMTQSPSSLSASVGDRVTISCRASQSISNFLNWYQQKPGQAPKLLIYTASNLQSGVPSRFSGSGSGTDFTLTISSLQPEDFATYYCQQIYNTGMYSFGQGTKLEIK
notes: also called 294S Fab

Assays:
[1] = target: T1, full-length Sudan GP (GPFL); assay: BLI, Fab, pH 5.3
[2] = target: T1, full-length Sudan GP (GPFL); assay: BLI, Fab, pH 7.4
[3] = target: T1, full-length Sudan GP (GPFL); assay: BLI, Fab, pH 5.3; remark: listed apart in the source
[4] = target: T1, full-length Sudan GP (GPFL); assay: BLI, Fab, pH 7.4; remark: listed apart in the source

Binder	Kd [1] [nM]	koff [1] [s⁻¹]	kon [1] [M⁻¹ s⁻¹]	Kd [2] [nM]	koff [2] [s⁻¹]	kon [2] [M⁻¹ s⁻¹]	Kd [3] [nM]	koff [3] [s⁻¹]	kon [3] [M⁻¹ s⁻¹]	Kd [4] [nM]	koff [4] [s⁻¹]	kon [4] [M⁻¹ s⁻¹]
B1	1.58	0.000103	65400	1.61	0.000148	91900						
B2							4.26	8.93e-05	21000	8.37	0.000303	36200
B3							57.7	0.00362	62800	102	0.00171	16800
B4	44.3	0.000322	7260	39.5	0.000482	12200						
B5							12.6	0.000352	27800	5.6	0.000496	88500
B6							18.2	0.000305	16800	6.11	0.000258	42200
B7							5.58	4.65e-05	8330	9.11	0.000387	42500
B8										91.2	0.00504	55300
B9							23.7	0.000418	17600	27.4	0.000632	23100
B10							118	0.00046	3880	26.1	0.000376	14400
B11							31.3	0.000452	14500	26	0.000422	16200
B12							63.7	0.000571	8970	36.7	0.000631	17200
B13	9.27	0.000105	11300	24.1	0.000252	10500						
B14							334	0.000695	2100	97.1	0.000404	4200
B15	2.18	0.000377	173000	4.3	0.00135	314000						
